The source of these data is PMC9352680, “A comprehensive thermodynamic model for RNA binding by the Saccharomyces cerevisiae Pumilio protein PUF4”.

B1: Ie_S4_P4E.1_K4.1_C4.1_H4.1_[+4T]_A4.1_F4.1_T4.1 (ssRNA)
RNA: UUUGACAACUGAUCGUUCUUUCUUGUAUUAUUAUUCUUUCUCGAUCAGUUGUCUUU
B2: Ie_S4_P4E.1_K4.1_C4.1_H4.1_A4.1_F4.1_[+8C]_T4.1 (ssRNA)
RNA: UUUGACAACUGAUCGUUCUUUCUUGUAUAUUCAUUCUUUCUCGAUCAGUUGUCUUU
B3: Ie_S4_P4E.1_K4.1_C4.1_H4.1_A4.1_[+7C]_F4.1_T4.1 (ssRNA)
RNA: UUUGACAACUGAUCGUUCUUUCUUGUAUAUCUAUUCUUUCUCGAUCAGUUGUCUUU
B4: Ie_S4_P4E.1_K4.1_C4.1_H4.1_[+3CCTC]_A4.1_F4.1_T4.1 (ssRNA)
RNA: UUUGACAACUGAUCGUUCUUUCUUGUCCUCAUAUUAUUCUUUCUCGAUCAGUUGUCUUU
B5: Ie_S4_P4E.1_K4.1_C4.1_H4.1_A4.1_[+5TCTC]_F4.1_T4.1 (ssRNA)
RNA: UUUGACAACUGAUCGUUCUUUCUUGUAUUCUCAUUAUUCUUUCUCGAUCAGUUGUCUUU
B6: Ie_S4_P4E.1_K4.1_C4.1_H4.1_A4.1_[+6TCTC]_F4.1_T4.1 (ssRNA)
RNA: UUUGACAACUGAUCGUUCUUUCUUGUAUAUCUCUUAUUCUUUCUCGAUCAGUUGUCUUU
B7: Ie_S4_P4E.1_K4.1_C4.1_H4.1_A4.1_[+5TTCC]_F4.1_T4.1 (ssRNA)
RNA: UUUGACAACUGAUCGUUCUUUCUUGUAUUUCCAUUAUUCUUUCUCGAUCAGUUGUCUUU
B8: Ie_S4_P4E.1_K4.1_C4.1_H4.1_A4.1_[+6CTCT]_F4.1_T4.1 (ssRNA)
RNA: UUUGACAACUGAUCGUUCUUUCUUGUAUACUCUUUAUUCUUUCUCGAUCAGUUGUCUUU
B9: Ie_S4_P5E.1_K5.1_C5.1_H5.1_A5.1_[+5CCC]_F5.1_T5.1 (ssRNA)
RNA: UUUGACAACUGAUCGUUCUUUCUUGUAUCCCUAUUAUUCUUUCUCGAUCAGUUGUCUUU
B10: Ie_S4_P4E.1_K4.1_C4.1_H4.1_A4.1_[+5CCTC]_F4.1_T4.1 (ssRNA)
RNA: UUUGACAACUGAUCGUUCUUUCUUGUAUCCUCAUUAUUCUUUCUCGAUCAGUUGUCUUU
B11: Ie_S4_P4E.1_K4.1_C4.1_H4.1_A4.1_F4.1_[+8TCTC]_T4.1 (ssRNA)
RNA: UUUGACAACUGAUCGUUCUUUCUUGUAUAUUUCUCAUUCUUUCUCGAUCAGUUGUCUUU
B12: Ie_S4_P4E.1_K4.1_C4.1_H4.1_A4.1_[+6CCCT]_F4.1_T4.1 (ssRNA)
RNA: UUUGACAACUGAUCGUUCUUUCUUGUAUACCCUUUAUUCUUUCUCGAUCAGUUGUCUUU
B13: Ie_S4_P4E.1_K4.1_C4.1_H4.1_[+4TCTC]_A4.1_F4.1_T4.1 (ssRNA)
RNA: UUUGACAACUGAUCGUUCUUUCUUGUAUCUCUAUUAUUCUUUCUCGAUCAGUUGUCUUU
B14: Ie_S4_P4E.1_K4.1_C4.1_H4.1_[+3TTT]_A4.1_F4.1_T4.1 (ssRNA)
RNA: UUUGACAACUGAUCGUUCUUUCUUGUUUUAUAUUAUUCUUUCUCGAUCAGUUGUCUUU
B15: Ie_S4_P4E.1_K4.1_C4.1_H4.1_A4.1_[+5TTT]_F4.1_T4.1 (ssRNA)
RNA: UUUGACAACUGAUCGUUCUUUCUUGUAUUUUAUUAUUCUUUCUCGAUCAGUUGUCUUU
B16: Ie_S4_P4E.1_K4.1_C4.1_H4.1_A4.1_[+5TCC]_F4.1_T4.1 (ssRNA)
RNA: UUUGACAACUGAUCGUUCUUUCUUGUAUUCCAUUAUUCUUUCUCGAUCAGUUGUCUUU
B17: Ie_S4_P4E.1_K4.1_C4.1_H4.1_A4.1_[+6TTT]_F4.1_T4.1 (ssRNA)
RNA: UUUGACAACUGAUCGUUCUUUCUUGUAUAUUUUUAUUCUUUCUCGAUCAGUUGUCUUU
B18: Ie_S4_P4E.1_K4.1_C4.1_H4.1_A4.1_[+7TTC]_F4.1_T4.1 (ssRNA)
RNA: UUUGACAACUGAUCGUUCUUUCUUGUAUAUUUCUAUUCUUUCUCGAUCAGUUGUCUUU
B19: Ie_S4_P5E.1_K5.1_C5.1_H5.1_A5.1_[+6CT]_F5.1_T5.1 (ssRNA)
RNA: UUUGACAACUGAUCGUUCUUUCUUGUAUUCUAUUAUUCUUUCUCGAUCAGUUGUCUUU
B20: Ie_S4_P4E.1_K4.1_C4.1_H4.1_A4.1_[+5TTC]_F4.1_T4.1 (ssRNA)
RNA: UUUGACAACUGAUCGUUCUUUCUUGUAUUUCAUUAUUCUUUCUCGAUCAGUUGUCUUU
B21: Ie_S4_P4E.1_K4.1_C4.1_H4.1_A4.1_[+6CCT]_F4.1_T4.1 (ssRNA)
RNA: UUUGACAACUGAUCGUUCUUUCUUGUAUACCUUUAUUCUUUCUCGAUCAGUUGUCUUU
B22: Ie_S4_P4E.1_K4.1_C4.1_H4.1_A4.1_[+6TCT]_F4.1_T4.1 (ssRNA)
RNA: UUUGACAACUGAUCGUUCUUUCUUGUAUAUCUUUAUUCUUUCUCGAUCAGUUGUCUUU
B23: Ie_S4_P4E.1_K4.1_C4.1_H4.1_[+4CTC]_A4.1_F4.1_T4.1 (ssRNA)
RNA: UUUGACAACUGAUCGUUCUUUCUUGUACUCUAUUAUUCUUUCUCGAUCAGUUGUCUUU
B24: Ie_S4_P4E.1_K4.1_C4.1_H4.1_A4.1_[+6CTC]_F4.1_T4.1 (ssRNA)
RNA: UUUGACAACUGAUCGUUCUUUCUUGUAUACUCUUAUUCUUUCUCGAUCAGUUGUCUUU
B25: Ie_S4_P5E.1_K5.1_C5.1_H5.1_A5.1_[+5CC]_F5.1_T5.1 (ssRNA)
RNA: UUUGACAACUGAUCGUUCUUUCUUGUAUCCUAUUAUUCUUUCUCGAUCAGUUGUCUUU
B26: Ie_S4_P4E.1_K4.1_C4.1_H4.1_A4.1_[+7CTC]_F4.1_T4.1 (ssRNA)
RNA: UUUGACAACUGAUCGUUCUUUCUUGUAUAUCUCUAUUCUUUCUCGAUCAGUUGUCUUU
B27: Ie_S4_P4E.1_K4.1_C4.1_H4.1_A4.1_F4.1_[+8TCC]_T4.1 (ssRNA)
RNA: UUUGACAACUGAUCGUUCUUUCUUGUAUAUUUCCAUUCUUUCUCGAUCAGUUGUCUUU
B28: Ib_S2_P3E.1_K3.1_C3.1_H3.1_[G2C]_A3.1_[A6C]_F3.1_T3.1 (ssRNA)
RNA: UUUGAUUAAUAUGAUAUCGUUCUUUCUUCUAUCUAUUCUUUCUCGAUAUCAUAUUAAUCUUU
B29: Ib_S2_P3E.1_K3.1_C3.1_H3.1_[G2A]_A3.1_[A6G]_F3.1_T3.1 (ssRNA)
RNA: UUUGAUUAAUAUGAUAUCGUUCUUUCUUAUAUGUAUUCUUUCUCGAUAUCAUAUUAAUCUUU
B30: Ib_S2_P3E.1_K3.1_C3.1_H3.1_[A4G]_A3.1_[T5C]_F3.1_T3.1 (ssRNA)
RNA: UUUGAUUAAUAUGAUAUCGUUCUUUCUUGUGCAUAUUCUUUCUCGAUAUCAUAUUAAUCUUU
B31: Ib_S2_P3E.1_K3.1_C3.1_H3.1_[G2T]_A3.1_[A6G]_F3.1_T3.1 (ssRNA)
RNA: UUUGAUUAAUAUGAUAUCGUUCUUUCUUUUAUGUAUUCUUUCUCGAUAUCAUAUUAAUCUUU
B32: Ie_S4_P4E.1_K4.1_C4.1_H4.1_[+4CT]_A4.1_F4.1_T4.1 (ssRNA)
RNA: UUUGACAACUGAUCGUUCUUUCUUGUACUUAUUAUUCUUUCUCGAUCAGUUGUCUUU
B33: Ie_S4_P4E.1_K4.1_C4.1_H4.1_A4.1_[+6TC]_F4.1_T4.1 (ssRNA)
RNA: UUUGACAACUGAUCGUUCUUUCUUGUAUAUCUUAUUCUUUCUCGAUCAGUUGUCUUU
B34: Ie_S4_P4E.1_K4.1_C4.1_H4.1_A4.1_F4.1_[+8CT]_T4.1 (ssRNA)
RNA: UUUGACAACUGAUCGUUCUUUCUUGUAUAUUCUAUUCUUUCUCGAUCAGUUGUCUUU
B35: Ie_S4_P4E.1_K4.1_C4.1_H4.1_[+4TC]_A4.1_F4.1_T4.1 (ssRNA)
RNA: UUUGACAACUGAUCGUUCUUUCUUGUAUCUAUUAUUCUUUCUCGAUCAGUUGUCUUU
B36: Ie_S4_P4E.1_K4.1_C4.1_H4.1_A4.1_[+5CC]_F4.1_T4.1 (ssRNA)
RNA: UUUGACAACUGAUCGUUCUUUCUUGUAUCCAUUAUUCUUUCUCGAUCAGUUGUCUUU
B37: Ie_S4_P4E.1_K4.1_C4.1_H4.1_A4.1_[+7TCTC]_F4.1_T4.1 (ssRNA)
RNA: UUUGACAACUGAUCGUUCUUUCUUGUAUAUUCUCUAUUCUUUCUCGAUCAGUUGUCUUU
B38: Ie_S4_P4E.1_K4.1_C4.1_H4.1_[+3TTCCT]_A4.1_F4.1_T4.1 (ssRNA)
RNA: UUUGACAACUGAUCGUUCUUUCUUGUUUCCUAUAUUAUUCUUUCUCGAUCAGUUGUCUUU
B39: Ie_S4_P4E.1_K4.1_C4.1_H4.1_[+3CCCTT]_A4.1_F4.1_T4.1 (ssRNA)
RNA: UUUGACAACUGAUCGUUCUUUCUUGUCCCUUAUAUUAUUCUUUCUCGAUCAGUUGUCUUU
B40: Ie_S4_P4E.1_K4.1_C4.1_H4.1_A4.1_[+5CTCTC]_F4.1_T4.1 (ssRNA)
RNA: UUUGACAACUGAUCGUUCUUUCUUGUAUCUCUCAUUAUUCUUUCUCGAUCAGUUGUCUUU
B41: Ie_S4_P5E.1_K5.1_C5.1_H5.1_A5.1_[+5TCTC]_F5.1_T5.1 (ssRNA)
RNA: UUUGACAACUGAUCGUUCUUUCUUGUAUUCUCUAUUAUUCUUUCUCGAUCAGUUGUCUUU
B42: Ie_S4_P4E.1_K4.1_C4.1_H4.1_[+4CTCTC]_A4.1_F4.1_T4.1 (ssRNA)
RNA: UUUGACAACUGAUCGUUCUUUCUUGUACUCUCUAUUAUUCUUUCUCGAUCAGUUGUCUUU
B43: Ie_S4_P5E.1_K5.1_C5.1_H5.1_A5.1_[+5TTCC]_F5.1_T5.1 (ssRNA)
RNA: UUUGACAACUGAUCGUUCUUUCUUGUAUUUCCUAUUAUUCUUUCUCGAUCAGUUGUCUUU
B44: Ie_S4_P4E.1_K4.1_C4.1_H4.1_A4.1_[+5CCTCT]_F4.1_T4.1 (ssRNA)
RNA: UUUGACAACUGAUCGUUCUUUCUUGUAUCCUCUAUUAUUCUUUCUCGAUCAGUUGUCUUU

In the series the target is T1, PUF4 RNA-binding domain (Saccharomyces cerevisiae, UniProt P25339 537-888).
T1 sequence: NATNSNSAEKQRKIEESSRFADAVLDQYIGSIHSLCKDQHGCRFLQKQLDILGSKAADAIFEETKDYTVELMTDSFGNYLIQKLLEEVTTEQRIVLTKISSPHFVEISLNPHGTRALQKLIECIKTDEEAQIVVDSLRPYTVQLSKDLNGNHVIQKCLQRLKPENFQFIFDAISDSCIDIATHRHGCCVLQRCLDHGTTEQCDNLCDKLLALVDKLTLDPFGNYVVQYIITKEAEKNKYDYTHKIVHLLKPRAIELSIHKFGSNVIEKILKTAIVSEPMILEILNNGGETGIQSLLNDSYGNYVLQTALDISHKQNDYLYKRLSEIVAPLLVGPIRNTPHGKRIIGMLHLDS
Description: Mg; RNA-MaP; 20 mM Na-HEPES pH 7.4, 30 mM KOAc, 0.75 mM MgCl2, 0.1% Tween-20, 5% glycerol, 0.1 mg/mL BSA, 2 mM DTT; 25 C; 0.0125-409.6 nM protein. To be noted: tags: N-His6-TEV cleaved; C-SNAP kept, Cy3B-labelled; label: tethered on chip by stalled RNA polymerase.
B1: the Kd (in general, the constant that tells how readily two partners part at equilibrium) was determined as 4.34 nM. B2: the Kd worked out at 13.1 nM. For B3, the Kd came to 1.92 nM.

For B4, the equilibrium dissociation constant (Kd) amounted to 66.1 nM.

Regarding B5, binding was put at a Kd of 35.8 nM. In turn, B6 registered a Kd of 15.4 nM. As to B7, binding was put at a Kd of 54 nM.

In the case of B8, binding was put at a Kd of 12 nM.

B9: the Kd was 7.89 nM. B10: the Kd came to 43.3 nM.

B11: binding was put at a Kd of 5.61 nM.

B12 gave a Kd of 22.2 nM. The molecule B13 registered a Kd of 4.78 nM. B14 displayed a Kd of 12.7 nM. B15 returned a Kd of 1.72 nM. For the molecule B16, the affinity, expressed as Kd, was 34.1 nM. Turning to B17, the Kd came out at 4.94 nM. B18 had a Kd of 4.42 nM. For B19, the affinity, expressed as Kd, was 2.21 nM. Take B20: the Kd is 31.3 nM. For the molecule B21, binding was characterised by a dissociation constant (Kd) of 11.2 nM. As for B22, the figure is 8.73 nM. B23: binding was put at a Kd of 1.44 nM. B24 displayed a Kd of 10.3 nM. As for B25, the figure is 3.27 nM. B26 showed a Kd of 10.3 nM. As for B27, the Kd was determined as 4.35 nM. B28 yielded a Kd of over 2300 nM. Molecule B29 gave a Kd of 76.2 nM. Turning to B30, the Kd turned out to be 24.6 nM. On to B31, for which binding was put at a Kd of 189 nM. Take B32: the Kd worked out at 4.23 nM. As for B33, the figure is 4.82 nM.

The molecule B34 had a Kd of 3.92 nM. As for B35, the Kd stood at 6.67 nM. B36 had a Kd of 13.5 nM. Regarding B37, the dissociation constant (Kd) was determined as 6.61 nM.

On to B38, for which the affinity, expressed as Kd, was 22.7 nM. B39 came in with a Kd of 51.6 nM. The molecule B40 returned a Kd of 42.8 nM.

As to B41, binding was put at a Kd of 9.69 nM. B42 yielded a Kd of 6.67 nM. For the molecule B43, binding was characterised by a dissociation constant (Kd) of 9.15 nM. On to B44, for which the Kd stood at 10 nM.
